Assay [1] concerns the target SARS-CoV-2 Gamma株S-ECD蛋白 (SARS-CoV-2 Gamma株 (P.1), UniProt P0DTC2 14-1213).
The target of assay [2] is SARS-CoV-2 Delta株S-ECD蛋白 (SARS-CoV-2 Delta株 (B.1.617.2), UniProt P0DTC2 14-1213).
Assay [3] concerns the target SARS-CoV-2 Beta株S-ECD蛋白 (SARS-CoV-2 Beta株 (B.1.351), UniProt P0DTC2 14-1213).
In assay [4] the target is SARS-CoV-2 Alpha株S-ECD蛋白 (SARS-CoV-2 Alpha株 (B.1.1.7), UniProt P0DTC2 14-1213).

B1: 抗SARS-CoV-2全人源单克隆抗体ZWC6 (antibody, human IgG1, kappa, V domains shown)
VH: EVQLVESGGGVVQPGTSLRLSCAASGFSFSHYVMYWVRQAPGKGLDWVAIISFDGSSQYYADSVKGRFTISRDNSKDTLYLQMHSLRPEDTAVYYCAIHGGTYYYDKNILAWGQGTLVTVSS
VL: AIRMTQSPPTLSLSPGERATLSCRASQSVTNYLVWYQQKPGQAPRLLIYDTFNRATGIPARFSGSGSGTDFTLTISSLEPEDFAVYYCQQRSNWPPTFGQGTKVDIKR
B1: the Kd in assay [1] was 1.2 nM; in assay [2], 4.21 nM; in assay [3], 0.658 nM; in assay [4], 0.938 nM. Also, the koff turned out to be 0.000182 s⁻¹ in assay [1], 0.000305 s⁻¹ in assay [2], 0.000121 s⁻¹ in assay [3] and 0.000164 s⁻¹ in assay [4]. Also, the kon in assay [1] is 151000 M⁻¹ s⁻¹; in assay [2], 72400 M⁻¹ s⁻¹; in assay [3], 184000 M⁻¹ s⁻¹; in assay [4], 175000 M⁻¹ s⁻¹.

(Values after CN113735970A (INST MILITARY MEDICINE ACADEMY MILITARY SCIENCES PLA, dated 2021).)
